# Target: recombinant ectodomain of Gc (rGc) from Hantaan virus strain 76-118 (Hantaan virus strain 76-118, UniProt P08668)
# Test: SEC-MALS; Gc mixed with an excess of scFv A5, Tris pH 8
# Details: both partners purified
binder,measurement,value
"scFv A5 (scFv, V domains shown, also called human single-chain variable domain antibody fragment A5) VH: QVQLQESGPGLVKPSETLSLTCVVSGGSISSSNWWSWVRQPPGKGLEWIGEIYHSGSPNYNPSLKSRVTISVDKSKNQFSLKLSSVTAADTAVYYCARQMRQWGQGTLVTVSS VL: SSELTQDPAVSVALGQTVRITCQGDSLRSYYASWYQQKPGQAPVLVIYGKNNRPSGIPDRFSGSSSGNTASLTITGAQAEDEADYYCNSRDSSGNHNVFGGGTKLTVL",stoichiometry N,1

# From article PMC5082683 (PLoS Pathogens, 2016)
